Data taken from the supplement of paper PMC9112550, “Optimization of the antimicrobial peptide Bac7 by deep mutational scanning” (BMC Biology, 2022).

These sequences were tested on Escherichia coli TOP10 (assay: shrunken log2 fold change of peptide-encoding DNA abundance (4.5 h post-induction vs induction); higher = less antimicrobial activity (less host growth inhibition)). Conditions: time post-induction: 4.5 h; library: site-saturation at positions 5, 18, 19, 20.
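Note: peptides expressed intracellularly from a pBAD plasmid library in pooled LB shake-flask culture, induced with 0.3% L-arabinose, DNA abundance read by NGS, three biological replicates, DESeq2 with apeglm shrinkage.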

First: RRIRSRPPRLPRPRPRPFRAPRP
Second: RRIRHRPPRLPRPRPRPMNAPRP
The “shrunken log2 fold change” value of the first is higher: -0.0568 for the first, -0.282 for the second.

RRIRARPPRLPRPRPRPYVGPRP and RRIRVRPPRLPRPRPRPHRTPRP are within 0.2 log units of each other in “shrunken log2 fold change” value: 0.0297 for the first, -0.16 for the second.

RRIRRRPPRLPRPRPRPDKGPRP and RRIRRRPPRLPRPRPRPFSYPRP are within 0.2 log units of each other in “shrunken log2 fold change” value: -0.0101 for the first, 0.016 for the second.

RRIRIRPPRLPRPRPRPTLTPRP and RRIRYRPPRLPRPRPRPMDMPRP are within 0.2 log units of each other in “shrunken log2 fold change” value: -0.13 for the first, -0.00926 for the second.

First: RRIRWRPPRLPRPRPRPVRNPRP
Second: RRIRQRPPRLPRPRPRPSEYPRP
The “shrunken log2 fold change” value of the first is higher: 0.432 for the first, -0.44 for the second.

Compared with RRIRWRPPRLPRPRPRPPDHPRP, RRIRCRPPRLPRPRPRPQDVPRP is lower in “shrunken log2 fold change” value: 0.594 for the first, -0.176 for the second.

RRIRFRPPRLPRPRPRPACDPRP and RRIRIRPPRLPRPRPRPPKMPRP are within 0.2 log units of each other in “shrunken log2 fold change” value: 0.103 for the first, -0.0476 for the second.

Compared with RRIRWRPPRLPRPRPRPHLKPRP, RRIRLRPPRLPRPRPRPLEAPRP is higher in “shrunken log2 fold change” value: -0.0706 for the first, 0.41 for the second.

First: RRIRPRPPRLPRPRPRPRQAPRP
Second: RRIRIRPPRLPRPRPRPHLEPRP
The “shrunken log2 fold change” value of the first is higher: 0.0176 for the first, -0.384 for the second.

First: RRIRGRPPRLPRPRPRPEMVPRP
Second: RRIRYRPPRLPRPRPRPGFPPRP
The “shrunken log2 fold change” value of the first is higher: 2.43 for the first, -6.24e-05 for the second.

Compared with RRIRARPPRLPRPRPRPARDPRP, RRIRSRPPRLPRPRPRPQHIPRP is lower in “shrunken log2 fold change” value: 0.298 for the first, -1.21 for the second.

Compared with RRIRVRPPRLPRPRPRPCNLPRP, RRIRDRPPRLPRPRPRPTLGPRP is higher in “shrunken log2 fold change” value: -0.163 for the first, 1.08 for the second.

Compared with RRIRLRPPRLPRPRPRPWYLPRP, RRIRIRPPRLPRPRPRPIQPPRP is higher in “shrunken log2 fold change” value: -0.759 for the first, -0.044 for the second.

First: RRIRSRPPRLPRPRPRPIPRPRP
Second: RRIRSRPPRLPRPRPRPGNCPRP
The “shrunken log2 fold change” value of the first is higher: 0.202 for the first, -0.0261 for the second.

First: RRIRTRPPRLPRPRPRPTGMPRP
Second: RRIRQRPPRLPRPRPRPCWDPRP
The “shrunken log2 fold change” value of the first is higher: 0.13 for the first, -0.155 for the second.

Going from RRIRMRPPRLPRPRPRPCCIPRP to RRIRFRPPRLPRPRPRPLAAPRP, the “shrunken log2 fold change” value rises from -0.351 to 0.315.

RRIRRRPPRLPRPRPRPAEFPRP and RRIRHRPPRLPRPRPRPMIVPRP are within 0.2 log units of each other in “shrunken log2 fold change” value: 0.0257 for the first, 0.0837 for the second.

RRIRTRPPRLPRPRPRPMFAPRP and RRIRWRPPRLPRPRPRPWMLPRP are within 0.2 log units of each other in “shrunken log2 fold change” value: -0.0818 for the first, -0.0694 for the second.

Going from RRIRHRPPRLPRPRPRPYFPPRP to RRIRRRPPRLPRPRPRPPRRPRP, the “shrunken log2 fold change” value rises from -1.43 to 1.34.

Compared with RRIRVRPPRLPRPRPRPIESPRP, RRIRGRPPRLPRPRPRPEWDPRP is higher in “shrunken log2 fold change” value: -0.0725 for the first, 1.56 for the second.

Going from RRIRCRPPRLPRPRPRPSWAPRP to RRIRCRPPRLPRPRPRPRYLPRP, the “shrunken log2 fold change” value falls from 0.18 to -0.799.

RRIRPRPPRLPRPRPRPGGIPRP and RRIRERPPRLPRPRPRPAMPPRP are within 0.2 log units of each other in “shrunken log2 fold change” value: 0.114 for the first, -0.0115 for the second.

RRIRVRPPRLPRPRPRPHFRPRP and RRIRQRPPRLPRPRPRPPCIPRP are within 0.2 log units of each other in “shrunken log2 fold change” value: -0.0776 for the first, -0.053 for the second.

Going from RRIRKRPPRLPRPRPRPTYHPRP to RRIRARPPRLPRPRPRPCSMPRP, the “shrunken log2 fold change” value rises from -0.283 to 0.00269.

First: RRIRCRPPRLPRPRPRPWYDPRP
Second: RRIRMRPPRLPRPRPRPYFYPRP
The “shrunken log2 fold change” value of the first is higher: -0.0194 for the first, -0.53 for the second.

RRIRKRPPRLPRPRPRPMSIPRP and RRIRPRPPRLPRPRPRPKNDPRP are within 0.2 log units of each other in “shrunken log2 fold change” value: -0.0141 for the first, -0.108 for the second.

Going from RRIRCRPPRLPRPRPRPNQFPRP to RRIRFRPPRLPRPRPRPRNGPRP, the “shrunken log2 fold change” value rises from -0.23 to 0.101.

First: RRIRWRPPRLPRPRPRPHHTPRP
Second: RRIRGRPPRLPRPRPRPHPDPRP
The “shrunken log2 fold change” value of the first is lower: -0.313 for the first, 0.502 for the second.

Going from RRIRYRPPRLPRPRPRPSRQPRP to RRIRRRPPRLPRPRPRPARWPRP, the “shrunken log2 fold change” value rises from -0.114 to 1.13.

Compared with RRIRQRPPRLPRPRPRPAPGPRP, RRIRDRPPRLPRPRPRPEPRPRP is higher in “shrunken log2 fold change” value: 0.417 for the first, 1 for the second.

First: RRIRIRPPRLPRPRPRPVYGPRP
Second: RRIRTRPPRLPRPRPRPPNPPRP
The “shrunken log2 fold change” value of the first is lower: -0.351 for the first, 0.442 for the second.

First: RRIRDRPPRLPRPRPRPCDFPRP
Second: RRIRNRPPRLPRPRPRPKPAPRP
The “shrunken log2 fold change” value of the first is lower: 0.0384 for the first, 0.601 for the second.

First: RRIRNRPPRLPRPRPRPDNDPRP
Second: RRIRKRPPRLPRPRPRPGGNPRP
The “shrunken log2 fold change” value of the first is lower: -0.579 for the first, 0.049 for the second.

Compared with RRIRERPPRLPRPRPRPTDTPRP, RRIRRRPPRLPRPRPRPWMKPRP is higher in “shrunken log2 fold change” value: -0.415 for the first, -0.196 for the second.

First: RRIRCRPPRLPRPRPRPDVKPRP
Second: RRIRARPPRLPRPRPRPAGYPRP
The “shrunken log2 fold change” value of the first is lower: -0.153 for the first, 0.399 for the second.

First: RRIRDRPPRLPRPRPRPITLPRP
Second: RRIRERPPRLPRPRPRPCNQPRP
The “shrunken log2 fold change” value of the first is higher: -0.0934 for the first, -0.296 for the second.

First: RRIRQRPPRLPRPRPRPWMFPRP
Second: RRIRSRPPRLPRPRPRPDKKPRP
The “shrunken log2 fold change” value of the first is lower: -0.374 for the first, -0.158 for the second.

RRIRNRPPRLPRPRPRPQQSPRP and RRIRHRPPRLPRPRPRPCWKPRP are within 0.2 log units of each other in “shrunken log2 fold change” value: -0.0808 for the first, -0.119 for the second.

RRIRCRPPRLPRPRPRPFPCPRP and RRIRLRPPRLPRPRPRPSPNPRP are within 0.2 log units of each other in “shrunken log2 fold change” value: -0.367 for the first, -0.183 for the second.

RRIRNRPPRLPRPRPRPCWEPRP and RRIRSRPPRLPRPRPRPFEVPRP are within 0.2 log units of each other in “shrunken log2 fold change” value: -0.0598 for the first, -0.109 for the second.

Going from RRIRGRPPRLPRPRPRPGKPPRP to RRIRLRPPRLPRPRPRPNAIPRP, the “shrunken log2 fold change” value falls from 0.516 to -0.385.

Going from RRIRFRPPRLPRPRPRPVSSPRP to RRIRLRPPRLPRPRPRPDQRPRP, the “shrunken log2 fold change” value rises from -0.371 to 0.274.

RRIRRRPPRLPRPRPRPATYPRP and RRIRLRPPRLPRPRPRPSDTPRP are within 0.2 log units of each other in “shrunken log2 fold change” value: -0.0435 for the first, -0.142 for the second.

Compared with RRIRARPPRLPRPRPRPEKYPRP, RRIRCRPPRLPRPRPRPFIIPRP is lower in “shrunken log2 fold change” value: 0.101 for the first, -0.577 for the second.

First: RRIRKRPPRLPRPRPRPVMHPRP
Second: RRIRARPPRLPRPRPRPVDLPRP
The “shrunken log2 fold change” value of the first is lower: -0.0631 for the first, 0.174 for the second.

First: RRIRVRPPRLPRPRPRPINSPRP
Second: RRIRPRPPRLPRPRPRPLPEPRP
The “shrunken log2 fold change” value of the first is lower: -0.022 for the first, 0.935 for the second.

Going from RRIRTRPPRLPRPRPRPPFVPRP to RRIRSRPPRLPRPRPRPGRQPRP, the “shrunken log2 fold change” value falls from 0.227 to -0.00462.

Compared with RRIRIRPPRLPRPRPRPHPSPRP, RRIRVRPPRLPRPRPRPTSVPRP is higher in “shrunken log2 fold change” value: -0.488 for the first, -0.0603 for the second.

RRIRDRPPRLPRPRPRPKNQPRP and RRIRYRPPRLPRPRPRPWSEPRP are within 0.2 log units of each other in “shrunken log2 fold change” value: -0.076 for the first, -0.117 for the second.

Going from RRIRERPPRLPRPRPRPQLNPRP to RRIRMRPPRLPRPRPRPRPWPRP, the “shrunken log2 fold change” value rises from -0.423 to 0.996.

Compared with RRIRCRPPRLPRPRPRPYDHPRP, RRIRWRPPRLPRPRPRPRHEPRP is higher in “shrunken log2 fold change” value: -0.797 for the first, -0.0681 for the second.

First: RRIRWRPPRLPRPRPRPKEVPRP
Second: RRIRLRPPRLPRPRPRPCFCPRP
The “shrunken log2 fold change” value of the first is higher: 0.0717 for the first, -0.279 for the second.

RRIRKRPPRLPRPRPRPHMSPRP and RRIRPRPPRLPRPRPRPHCWPRP are within 0.2 log units of each other in “shrunken log2 fold change” value: 0.0205 for the first, 0.151 for the second.

RRIRRRPPRLPRPRPRPWMFPRP and RRIRERPPRLPRPRPRPRTGPRP are within 0.2 log units of each other in “shrunken log2 fold change” value: 0.0935 for the first, 0.0617 for the second.

First: RRIRARPPRLPRPRPRPHKIPRP
Second: RRIRWRPPRLPRPRPRPKTDPRP
The “shrunken log2 fold change” value of the first is lower: -0.0893 for the first, 0.204 for the second.

RRIRYRPPRLPRPRPRPNGAPRP and RRIRNRPPRLPRPRPRPKALPRP are within 0.2 log units of each other in “shrunken log2 fold change” value: -0.0032 for the first, 0.0983 for the second.

RRIRFRPPRLPRPRPRPCVNPRP and RRIRDRPPRLPRPRPRPMPDPRP are within 0.2 log units of each other in “shrunken log2 fold change” value: -0.121 for the first, -0.00281 for the second.

Compared with RRIRLRPPRLPRPRPRPTIWPRP, RRIRHRPPRLPRPRPRPLRQPRP is lower in “shrunken log2 fold change” value: 0.203 for the first, -0.0125 for the second.

First: RRIRARPPRLPRPRPRPHYMPRP
Second: RRIRCRPPRLPRPRPRPTETPRP
The “shrunken log2 fold change” value of the first is lower: -0.381 for the first, -0.0479 for the second.

Going from RRIRERPPRLPRPRPRPKDLPRP to RRIRYRPPRLPRPRPRPSPYPRP, the “shrunken log2 fold change” value falls from 0.167 to -0.709.

First: RRIRCRPPRLPRPRPRPPDYPRP
Second: RRIRVRPPRLPRPRPRPHSNPRP
The “shrunken log2 fold change” value of the first is higher: 0.0368 for the first, -0.505 for the second.

Compared with RRIRQRPPRLPRPRPRPIRGPRP, RRIRARPPRLPRPRPRPRWVPRP is higher in “shrunken log2 fold change” value: -0.0547 for the first, 0.267 for the second.

RRIRIRPPRLPRPRPRPGHIPRP was tested, and the “shrunken log2 fold change” value was -0.327.
